Results from US20140274782A1, “AFFINITY REAGENTS AND METHODS FOR DETECTION, PURIFICATION, AND PROTEOMIC ANALYSIS OF METHYLATED PROTEINS” (The Board of Trustees of the Leland Stanford Junior …, priority 2013, published 2014).

T1: G9a and GLP (Homo sapiens, UniProt Q96KQ7+Q9H9B1)
T1 sequence (Q96KQ7 2-1210 limits assumed): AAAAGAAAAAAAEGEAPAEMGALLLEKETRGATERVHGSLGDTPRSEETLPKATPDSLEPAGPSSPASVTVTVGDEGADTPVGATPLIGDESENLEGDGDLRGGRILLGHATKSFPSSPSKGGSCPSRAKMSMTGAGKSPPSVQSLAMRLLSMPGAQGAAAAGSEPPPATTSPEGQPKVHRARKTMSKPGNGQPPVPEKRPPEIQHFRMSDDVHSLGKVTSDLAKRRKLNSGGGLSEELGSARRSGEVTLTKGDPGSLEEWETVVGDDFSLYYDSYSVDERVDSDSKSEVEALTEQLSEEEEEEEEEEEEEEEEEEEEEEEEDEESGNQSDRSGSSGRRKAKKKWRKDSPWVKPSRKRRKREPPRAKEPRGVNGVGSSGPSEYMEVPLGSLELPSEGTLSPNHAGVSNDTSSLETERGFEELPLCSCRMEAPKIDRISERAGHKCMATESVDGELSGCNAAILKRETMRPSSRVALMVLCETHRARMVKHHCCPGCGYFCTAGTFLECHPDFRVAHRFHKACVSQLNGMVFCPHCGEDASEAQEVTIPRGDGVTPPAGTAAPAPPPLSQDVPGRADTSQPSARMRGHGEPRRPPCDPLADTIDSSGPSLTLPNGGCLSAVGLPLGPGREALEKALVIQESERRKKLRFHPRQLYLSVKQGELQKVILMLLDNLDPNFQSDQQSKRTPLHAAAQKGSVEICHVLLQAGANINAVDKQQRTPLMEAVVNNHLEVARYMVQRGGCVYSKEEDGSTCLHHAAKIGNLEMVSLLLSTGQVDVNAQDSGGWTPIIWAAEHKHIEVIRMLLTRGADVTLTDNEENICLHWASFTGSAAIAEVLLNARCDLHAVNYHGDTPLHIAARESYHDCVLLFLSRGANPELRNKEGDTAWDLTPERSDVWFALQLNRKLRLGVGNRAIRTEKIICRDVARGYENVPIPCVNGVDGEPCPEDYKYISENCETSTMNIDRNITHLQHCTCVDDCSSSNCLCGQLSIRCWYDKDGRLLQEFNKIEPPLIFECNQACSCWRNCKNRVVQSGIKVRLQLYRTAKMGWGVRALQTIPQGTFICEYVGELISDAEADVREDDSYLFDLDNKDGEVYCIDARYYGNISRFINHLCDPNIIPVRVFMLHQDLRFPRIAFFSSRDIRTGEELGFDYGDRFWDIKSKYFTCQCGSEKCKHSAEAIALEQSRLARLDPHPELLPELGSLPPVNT
T1 sequence (Q9H9B1 2-1298 limits assumed): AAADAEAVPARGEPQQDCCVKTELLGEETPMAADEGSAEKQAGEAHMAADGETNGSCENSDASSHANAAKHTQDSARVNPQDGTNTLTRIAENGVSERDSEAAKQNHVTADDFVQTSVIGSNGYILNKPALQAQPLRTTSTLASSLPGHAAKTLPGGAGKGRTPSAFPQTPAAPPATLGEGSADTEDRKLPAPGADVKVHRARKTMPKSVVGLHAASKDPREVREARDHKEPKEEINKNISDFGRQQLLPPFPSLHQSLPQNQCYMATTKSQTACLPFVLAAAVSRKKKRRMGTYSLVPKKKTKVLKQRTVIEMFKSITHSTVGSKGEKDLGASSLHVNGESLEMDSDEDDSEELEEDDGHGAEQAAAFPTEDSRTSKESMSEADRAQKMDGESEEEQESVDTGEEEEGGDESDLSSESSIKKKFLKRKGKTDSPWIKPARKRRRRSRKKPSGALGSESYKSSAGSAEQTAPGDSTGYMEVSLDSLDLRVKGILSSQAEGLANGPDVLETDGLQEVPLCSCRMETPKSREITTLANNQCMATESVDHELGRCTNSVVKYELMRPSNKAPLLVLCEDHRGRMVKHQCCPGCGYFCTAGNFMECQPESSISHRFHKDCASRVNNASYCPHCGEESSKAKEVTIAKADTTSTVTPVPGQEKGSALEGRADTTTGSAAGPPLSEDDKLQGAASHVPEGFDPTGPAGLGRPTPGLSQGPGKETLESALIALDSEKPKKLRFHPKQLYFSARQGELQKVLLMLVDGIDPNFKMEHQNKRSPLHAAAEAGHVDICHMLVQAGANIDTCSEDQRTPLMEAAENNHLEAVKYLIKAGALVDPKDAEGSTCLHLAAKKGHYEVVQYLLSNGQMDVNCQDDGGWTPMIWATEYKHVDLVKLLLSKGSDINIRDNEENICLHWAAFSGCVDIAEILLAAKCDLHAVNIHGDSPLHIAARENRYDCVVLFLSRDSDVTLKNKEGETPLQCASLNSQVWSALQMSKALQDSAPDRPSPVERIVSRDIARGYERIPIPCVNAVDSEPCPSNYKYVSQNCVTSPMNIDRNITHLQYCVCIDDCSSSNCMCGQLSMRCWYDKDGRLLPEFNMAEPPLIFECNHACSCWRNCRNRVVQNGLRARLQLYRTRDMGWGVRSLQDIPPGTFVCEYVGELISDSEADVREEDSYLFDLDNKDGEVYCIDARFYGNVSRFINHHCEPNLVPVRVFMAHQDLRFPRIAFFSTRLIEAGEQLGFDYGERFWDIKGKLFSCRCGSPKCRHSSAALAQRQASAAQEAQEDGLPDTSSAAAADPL

B1: DDX49 (protein, UniProt Q9Y6V7 1-483, looked up)
Probable ATP-dependent RNA …: MAGFAELGLSSWLVEQCRQLGLKQPTPVQLGCIPAILEGRDCLGCAKTGSGKTAAFVLPILQKLSEDPYGIFCLVLTPTRELAYQIAEQFRVLGKPLGLKDCIIVGGMDMVAQALELSRKPHVVIATPGRLADHLRSSNTFSIKKIRFLVMDEADRLLEQGCTDFTVDLEAILAAVPARRQTLLFSATLTDTLRELQGLATNQPFFWEAQAPVSTVEQLDQRYLLVPEKVKDAYLVHLIQRFQDEHEDWSIIIFTNTCKTCQILCMMLRKFSFPTVALHSMMKQKERFAALAKFKSSIYRILIATDVASRGLDIPTVQVVINHNTPGLPKIYIHRVGRTARAGRQGQAITLVTQYDIHLVHAIEEQIKKKLEEFSVEEAEVLQILTQVNVVRRECEIKLEAAHFDEKKEINKRKQLILEGKDPDLEAKRKAELAKIKQKNRRFKEKVEETLKRQKAGRAGHKGRPPRTPSGSHSGPVPSQGLV
B2: DHX36 (protein, UniProt Q9H2U1 1-1008, looked up)
ATP-dependent DNA/RNA …: MSYDYHQNWGRDGGPRSSGGGYGGGPAGGHGGNRGSGGGGGGGGGGRGGRGRHPGHLKGREIGMWYAKKQGQKNKEAERQERAVVHMDERREEQIVQLLNSVQAKNDKESEAQISWFAPEDHGYGTEVSTKNTPCSENKLDIQEKKLINQEKKMFRIRNRSYIDRDSEYLLQENEPDGTLDQKLLEDLQKKKNDLRYIEMQHFREKLPSYGMQKELVNLIDNHQVTVISGETGCGKTTQVTQFILDNYIERGKGSACRIVCTQPRRISAISVAERVAAERAESCGSGNSTGYQIRLQSRLPRKQGSILYCTTGIILQWLQSDPYLSSVSHIVLDEIHERNLQSDVLMTVVKDLLNFRSDLKVILMSATLNAEKFSEYFGNCPMIHIPGFTFPVVEYLLEDVIEKIRYVPEQKEHRSQFKRGFMQGHVNRQEKEEKEAIYKERWPDYVRELRRRYSASTVDVIEMMEDDKVDLNLIVALIRYIVLEEEDGAILVFLPGWDNISTLHDLLMSQVMFKSDKFLIIPLHSLMPTVNQTQVFKRTPPGVRKIVIATNIAETSITIDDVVYVIDGGKIKETHFDTQNNISTMSAEWVSKANAKQRKGRAGRVQPGHCYHLYNGLRASLLDDYQLPEILRTPLEELCLQIKILRLGGIAYFLSRLMDPPSNEAVLLSIRHLMELNALDKQEELTPLGVHLARLPVEPHIGKMILFGALFCCLDPVLTIAASLSFKDPFVIPLGKEKIADARRKELAKDTRSDHLTVVNAFEGWEEARRRGFRYEKDYCWEYFLSSNTLQMLHNMKGQFAEHLLGAGFVSSRNPKDPESNINSDNEKIIKAVICAGLYPKVAKIRLNLGKKRKMVKVYTKTDGLVAVHPKSVNVEQTDFHYNWLIYHLKMRTSSIYLYDCTEVSPYCLLFFGGDISIQKDNDQETIAVDEWIVFQSPARIAHLVKELRKELDILLQEKIESPHPVDWNDTKSRDCAVLSAIIDLIKTQEKATPRNFPPRFQDGYYS
B3: RBM39 (protein, UniProt Q14498 2-530, looked up)
RNA-binding protein 39: ADDIDIEAMLEAPYKKDENKLSSANGHEERSKKRKKSKSRSRSHERKRSKSKERKRSRDRERKKSKSRERKRSRSKERRRSRSRSRDRRFRGRYRSPYSGPKFNSAIRGKIGLPHSIKLSRRRSRSKSPFRKDKSPVREPIDNLTPEERDARTVFCMQLAARIRPRDLEEFFSTVGKVRDVRMISDRNSRRSKGIAYVEFVDVSSVPLAIGLTGQRVLGVPIIVQASQAEKNRAAAMANNLQKGSAGPMRLYVGSLHFNITEDMLRGIFEPFGRIESIQLMMDSETGRSKGYGFITFSDSECAKKALEQLNGFELAGRPMKVGHVTERTDASSASSFLDSDELERTGIDLGTTGRLQLMARLAEGTGLQIPPAAQQALQMSGSLAFGAVAEFSFVIDLQTRLSQQTEASALAAAASVQPLATQCFQLSNMFNPQTEEEVGWDTEIKDDVIEECNKHGGVIHIYVDKNSAQGNVYVKCPSIAAAIAAVNALHGRWFAGKMITAAYVPLPTYHNLFPDSMTATQLLVPSRR

What follows are molecules tested on 3×MBT domain of L3MBTL1 (assay: Triple SILAC pull-down, 3xMBT/3xMBTD355N ratio (cytoplasmic, nuclear and chromatin fractions of 293T cells)). Settings: SILAC ratio 3xMBT vs 3xMBTD355N pull-down, 293T cells; experiment with UNC0638 in heavy SILAC media; all values in log base 2.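 Also: proteins quantified with MaxQuant, requiring at least two unique peptides and quantification in both label directions, normalized to the mean of proteins from a digested loading control.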
Format: binding, human
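For Relative to UNC0638 Average in this document: mass spectrometry (Q-Exactive) SILAC quantitation, DMSO/UNC0638 ratio computed after subtracting 3×MBTD355N mutant pull-down background, only proteins with at least twofold 3×MBT over mutant signal considered.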
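For Relative to UNC0638 UNC Heavy in this document: mass spectrometry (Q-Exactive) SILAC quantitation, DMSO/UNC0638 ratio computed after subtracting 3×MBTD355N mutant pull-down background, only proteins with at least twofold 3×MBT over mutant signal considered.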
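For Relative to UNC0638 UNC Light in this document: mass spectrometry (Q-Exactive) SILAC quantitation, DMSO/UNC0638 ratio computed after subtracting 3×MBTD355N mutant pull-down background, only proteins with at least twofold 3×MBT over mutant signal considered.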

| Molecule | 3xMBT/D355N UNC Heavy |
| --- | --- |
| B1 | 3.17 log base 2 |
| B2 | 1.95 log base 2 |
| B3 | 2.04 log base 2 |

Same assay, conditions: SILAC ratio 3xMBT vs 3xMBTD355N pull-down, 293T cells; experiment with UNC0638 in light SILAC media; all values in log base 2

| Molecule | 3xMBT/D355N UNC Light |
| --- | --- |
| B1 | 1.77 log base 2 |
| B2 | 2.83 log base 2 |
| B3 | 0.93 log base 2 |

These molecules were tested against T1, G9a and GLP (assay: Triple SILAC pull-down after UNC0638 treatment of 293T cells, DMSO/UNC0638 ratio of protein captured by 3×MBT). Settings: SILAC ratio DMSO relative to UNC0638, pull-down with 3xMBT; UNC0638 in heavy SILAC media; all values in log base 2.
Format: cell-based
Design: endogenous in cells; host or cells: HEK 293T

| Molecule | Relative to UNC0638 UNC Heavy |
| --- | --- |
| B1 | 0.43 log base 2 |
| B2 | 0.19 log base 2 |
| B3 | 0.03 log base 2 |

Same assay, conditions: SILAC ratio DMSO relative to UNC0638, pull-down with 3xMBT; UNC0638 in light SILAC media; all values in log base 2

| Molecule | Relative to UNC0638 UNC Light |
| --- | --- |
| B1 | −0.49 log base 2 |
| B2 | −0.24 log base 2 |
| B3 | −0.03 log base 2 |

Same assay, conditions: average of UNC Light and UNC Heavy experiments; all values in log base 2

| Molecule | Relative to UNC0638 Average |
| --- | --- |
| B1 | −0.03 log base 2 |
| B2 | −0.02 log base 2 |
| B3 | 0.00 log base 2 |
